# Data as given in US20060281702A1, “Combinatorial selection of phosphorothioate aptamers for RNases” (priority 2005, published 2006).
# Entries after “also recorded” stand apart in the source; their conditions may differ. Read-outs that look alike come from different tables or passages of the source.
# B1: R12-2: 62-mer duplex DNA thioaptamer, monothiophosphate 5′ to dA, selected against RNase H domain of HIV-RT; probably SEQ ID NOS. 1 and 2 (nucleic acid)
# chain 1: AATGCTTCCACGAGCCTTTCGGGGTTGGTGTACAGTGGATGGCTGCGAGGCGGTAGTCTATTC
# chain 2: GAATAGACTACCGCCTCGCAGCCATCCACTGTACACCAACCCCGAAAGGCTCGTGGAAGCAT
# modifications: DNA, backbone and methylation of C not given here; duplex DNA thioaptamer, monothiophosphate 5' to dA
# notes: 62-mer duplex DNA thioaptamer, monothiophosphate 5′ to dA, selected against RNase H domain of HIV-RT; 1 and 2
# Legend:
# HIV-RT = target: T1, HIV-RT (Human immunodeficiency virus type 1 group M subtype B, UniProt P04585); experiment: EMSA binding to intact HIV-RT
# T1 construct: The 66 kDa domain, p66, contains an RNase H domain in addition to the DNA polymerase domain; purchased Amersham Bioscience (Piscataway, N.J.)
# Protocol: Electrophoresis Mobility Shift Assay (EMSA). One of the selected thioaptamers (R12-2) was used to test the specific binding to RNase H. R12-2 was labeled with fluorescein at the 5′-end by enzymatic synthesis and was incubated with increasing concentrations of HIV-RT RNase H in Tris-HCl buffer (50 mM. pH 8), MgCl2 (10 mM) and DTT (40 mM) at 37° C. for 30 minutes. The reaction mixture was loaded on an 8% native polyacrylamide gel, electrophoresed and analyzed on the Flor Chem 8800 imager (Alpha Innotech, CA). Similar experiment was performed with the E.coli RNase H, to test whether R12-2 binds to the RNase H from E.coli.
# Next, the binding of R12-2 to the intact HIV-RT by EMSA methods was also determined. In FIG. 4a, the protein in the band was detected by staining the gel with Coomassie blue.
# [1] = target: T2, isolated domain of RNase H HIV-RT (Human immunodeficiency virus type 1 group M subtype B, UniProt P04585); experiment: NMR titration of R12-2 with isolated RNase H domain; format: binding, HIV-1; settings: addition of RNase H to R12-2
# T2 construct: encodes the 15 kDa RNase H domain of HIV-RT; made in house; host or cells: E. coli
# Protocol: NMR Spectroscopy. Uniformly ^15N labeled RNase H and chemically synthesized R12-2 were used to monitor the binding of the R12-2 thioaptamer to the isolated domain of RNase H. The oligonucleotide concentrations were calculated from the absorbance value and using the molar absorption coefficients calculated using the nearest neighbor parameters. ^15N-HSQC spectra (26) of the isolated RNase H in the presence of 25 mM MgCl2 were acquired on Varian UnityPlus 750 MHz instrument equipped with pulse field gradients and using triple resonance probes. One dimensional proton NMR and 2D NOESY spectra (250 ms mixing time) of R12-2 thioaptamer in 95% H2O/5% D2O were collected at 750 MHz. The signals from the […] imino protons of R12-2, that are very sensitive to changes in the DNA conformation, were monitored during the titration of RNase H to the R12-2.
# [2] = target: T3, RNase H activity of intact HIV-RT (Human immunodeficiency virus type 1 group M subtype B, UniProt P04585); experiment: HIV-RT RNase H activity assay (3H-labeled DNA:RNA hybrid); format: biochemical; settings: intact HIV-RT 0.35 μM, R12-2 0.5-2 μM, FIG. 5
# T3 construct: The 66 kDa domain, p66, contains an RNase H domain in addition to the DNA polymerase domain; purchased Amersham Bioscience (Piscataway, N.J.)
# Protocol: HIV-RT RNase H activity assay. A DNA:RNA heteroduplex containing radiolabeled RNA was prepared as a substrate for the RNase H. A tritium-labeled RNA molecule, the stem loop 2 of the HIV psi-RNA (25), was made by in-vitro transcription using T7 RNA polymerase with a mixture of ATP, CTP, GTP and ^3H-UTP. Transcribed RNA was purified by centrifugation using Microcon YM-3 filters, to remove NTPs and other short RNA sequences. The purified RNA was annealed with the complementary DNA strand to give the DNA:RNA hybrid where the RNA strand is ^3H-labeled. HIV-RT (0.35 μM) was incubated with R12-2 thioaptamer (0.5-2 μM) in a buffer containing Tris-HCl (50 mM, pH 8.0), MgCl2 (6 mM), DTT (10 mM) and KCl (80 mM) for 30 min at 37° C. To this mixture, labeled DNA-RNA hybrid (40 000 cpm) was added to a final volume of 50 μl and incubated at 37° C. for 20 min. The reaction was quenched by addition of 150 μl of 10% trichloroacetic acid and the mixture was placed on ice for 10 min. The reaction mixture was filtered, washed and the amount of radioactivity in the filtrate was measured using a scintillation counter (Beckman Coulter, CA). The amount of radioactivity in the filtrate is regarded as proportional to RNase H activity.
# The ability of the thioaptamer R12-2 to inhibit RNase H activity was tested using a radio-labeled substrate of a DNA:RNA hybrid duplex, as described in Methods. […]
# isolated RNase H domain = target: T4, isolated RNase H domain (Human immunodeficiency virus type 1 group M subtype B, UniProt P04585); experiment: RNase H activity of the isolated RNase H domain; format: biochemical, HIV
# T4 construct: encodes the 15 kDa RNase H domain of HIV-RT; made in house; host or cells: E. coli
# [3] = tested on: HIV-1 SF162 (R5) in U373-MAGI-CCR5 cells; experiment: HIV infection of ODN-transfected U373-MAGI-CCR5 cells; format: cell-based
# From the text: Viruses and cells. HIV-1 SF162-R5 is a primary isolate that uses CCR5 as a coreceptor (R5), and was obtained from the NIH AIDS Research and Reference Reagent Program. U373-MAGI-CCR5 cells have modifications of the U373 astrocytoma adherent cells that allow use for HIV transfection and infection studies. U373-MAGI-CCR5 cells express β-gal under the control of HIV LTR, which is trans-activated by the HIV Tat protein in relation to the level of virus replication. In addition, these cells express CD4 and the human chemokine receptor CCR5 on its surface, which allow infection by primary HIV strains. U373 cells are propagated in 90% DMEM, 10% fetal bovine serum, 0.2 mg/ml G418, 0.1 mg/ml hydromycin B, and 1.0 μg/ml puromycin. For transfection and infection studies, U373 cells were maintained in 90% DMEM, 10% fetal bovine serum, and 1% penicillin/streptomycin. Thioaptamer RNase H-specific R12-2, control AP-1-specific or scrambled ODNs were transfected into the cells 24 hr prior to infection using Oligofectamine liposomes, according to the manufacturer's instructions (Invitrogen).
# Infection of ODN-transfected U373-MAGI-CCR5 cells. Transfected cells and control cells were infected with HIV at m.o.i. of 0.003 (which consistently gives high levels of viral production) for 2 hr. Equal volumes of medium were then added and infection was continued for 48 hr. HIV replication was quantitated in cell lysates by measurement of β-gal activity, determined by luminometry using the β-Glo kit (Promega), according to the manufacturer's guidelines. β-gal activity is expressed as relative light units (RLU). To determine HIV TCID50 in U373-MAGI-CCR5 cells, serial dilutions (10×) of SF162-R5 virus supernatant were innoculated onto a 24-well plate containing 3×10^4 U373 cells for 2 hr, then equal volumes of complete medium were added, and infection was continued for 48 hr. Cells then were lysed and assayed for HIV-directed β-gal expression, and TCID50 (50% tissue culture infective dose) was calculated from quadruplicates. The p24 antigen capture assay (Beckman-Coulter) was used to determine virus production in some studies, measured by p24 antigen concentration in the culture supernatants harvested at day 7 post-infection.
molecule,measurement,setting,value
B1,binding to intact HIV-RT (EMSA),HIV-RT; FIG. 4A,is binding
same,Kd,"HIV-RT; intact HIV-RT, EMSA bound band intensity, Hill Plot, FIG. 4B, read-out: dissociation constant Kd",70 nM
same,Kd,"HIV-RT; specific binding to HIV-RT, read-out: binding constant",70 nM
same,"binding to isolated RNase H domain (NMR, imino proton signal broadening)",[1],binding
same,inhibition of RNase H activity,[2],inhibit; also recorded: shows inhibition
same,effect against the isolated RNase H domain,isolated RNase H domain,not effective
same,reduction of infection,"[3]; Oligofectamine transfection 24 h prior to infection, HIV-SF162 m.o.i. 0.003, compared with untransfected or OF-only cells, FIG. 6",greater than 75%
same,inhibition of the virus at high m.o.i.,"[3]; R12-2 0.05 μg/ml, inocula m.o.i. 0.05 to 0.0005, FIG. 8",significant inhibition
same,reduction of virus production,[3]; high m.o.i.,more than 50%
same,suppression of virus compared with AZT,"[3]; m.o.i.≦0.005, AZT 10 μM, FIG. 8",comparable to that seen with AZT
same,IC50,"[3]; transfected 24 hrs prior to infection with HIV SF162, 48 hrs, doses 0.03 to 2.0 μg/ml, FIG. 7, read-out: IC50 (inhibition of HIV infection)",< 100 nM
same,effect on HIV infection / viral production,"[3]; transfected U373-MAGI-CCR5 cells, FIG. 6",inhibits; also recorded: markedly reduces
